The results in this text go back to publication doi:10.1101/2021.04.07.438849 (bioRxiv, 2021).

The target in the test is T1, NTD of the SARS-CoV-2 spike protein (SARS-CoV-2 Wuhan-Hu-1, UniProt P0DTC2).
T1 construct: also called N-terminal domain
In words: ELISA. Particulars: both partners purified. In general terms: In an ELISA, binding on a coated surface is turned into a signal by an enzyme label.

B1: 8–131 (antibody, V domains shown)
VH: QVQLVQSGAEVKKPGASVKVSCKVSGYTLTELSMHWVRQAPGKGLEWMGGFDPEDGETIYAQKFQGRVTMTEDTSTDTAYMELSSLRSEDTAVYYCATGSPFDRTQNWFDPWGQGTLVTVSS
VL: QSVVTQPPSVSAAPGQKVTISCSGSRSNIGNNYVSWYQQLPGTAPKLLIYDYDKRPSGIPDRFSGSKSGTSATLGITGLQTGDEADYYCGTWDNSLSAGVFGGGTRLTVL
Take B1: the binding result was “binds”.
